According to the Immune Epitope Database (IEDB):

Tests used:
Test in all cases: IEDB peptide-MHC binding, purified MHC/competitive/fluorescence; filed as Kd, often an IC50 or EC50 that approximates it; ≥ and ≤ were set here for values at or beyond the usual limits of such assays
Conditions in all cases: source organism: Cryptosporidium parvum Iowa II
HLA-A*30:01 = biological target: HLA-A*30:01
HLA-B*53:01 = biological target: HLA-B*53:01
HLA-A*11:01 = biological target: HLA-A*11:01
HLA-B*08:01 = biological target: HLA-B*08:01
HLA-B*40:01 = biological target: HLA-B*40:01
HLA-B*27:05 = biological target: HLA-B*27:05
HLA-A*01:01 = biological target: HLA-A*01:01

Measured: Kd

TVFRNQNRV
≥ 5 µM: all assays above
